Test results: paper PMC11066524, “The molecular determinants of classical pathway complement inhibition by OspEF-related proteins of Borrelia burgdorferi” (The Journal of Biological Chemistry, 2024)

T1: full-length activated human C1s (human, UniProt P09871 16-437; P09871 438-688)
T1 construct: also called active C1s
T1 sequence 1: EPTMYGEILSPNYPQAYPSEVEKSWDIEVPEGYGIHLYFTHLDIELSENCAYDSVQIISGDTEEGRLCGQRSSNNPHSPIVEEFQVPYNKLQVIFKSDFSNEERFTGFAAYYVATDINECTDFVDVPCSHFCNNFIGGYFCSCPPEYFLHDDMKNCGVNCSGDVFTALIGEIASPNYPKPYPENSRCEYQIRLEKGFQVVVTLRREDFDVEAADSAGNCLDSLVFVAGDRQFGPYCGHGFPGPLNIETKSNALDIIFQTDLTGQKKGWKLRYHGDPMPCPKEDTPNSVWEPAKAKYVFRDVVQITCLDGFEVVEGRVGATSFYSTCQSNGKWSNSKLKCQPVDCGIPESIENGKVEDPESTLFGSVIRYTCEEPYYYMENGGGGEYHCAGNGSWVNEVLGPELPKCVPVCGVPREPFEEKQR
T1 sequence 2: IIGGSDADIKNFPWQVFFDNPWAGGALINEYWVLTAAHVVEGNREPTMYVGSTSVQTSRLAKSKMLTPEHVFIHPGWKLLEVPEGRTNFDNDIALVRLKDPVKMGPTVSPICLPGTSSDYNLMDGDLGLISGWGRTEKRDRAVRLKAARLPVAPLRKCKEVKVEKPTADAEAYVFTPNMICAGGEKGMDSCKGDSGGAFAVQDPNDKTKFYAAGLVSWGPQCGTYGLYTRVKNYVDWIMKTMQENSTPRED

T2: activated full-length human C1r (human, UniProt P00736 18-705)
T2 construct: as far as I recall it is cleaved at Arg463-Ile464 of P00736 and lacks the signal peptide (1-17); also called active C1r
T2 sequence: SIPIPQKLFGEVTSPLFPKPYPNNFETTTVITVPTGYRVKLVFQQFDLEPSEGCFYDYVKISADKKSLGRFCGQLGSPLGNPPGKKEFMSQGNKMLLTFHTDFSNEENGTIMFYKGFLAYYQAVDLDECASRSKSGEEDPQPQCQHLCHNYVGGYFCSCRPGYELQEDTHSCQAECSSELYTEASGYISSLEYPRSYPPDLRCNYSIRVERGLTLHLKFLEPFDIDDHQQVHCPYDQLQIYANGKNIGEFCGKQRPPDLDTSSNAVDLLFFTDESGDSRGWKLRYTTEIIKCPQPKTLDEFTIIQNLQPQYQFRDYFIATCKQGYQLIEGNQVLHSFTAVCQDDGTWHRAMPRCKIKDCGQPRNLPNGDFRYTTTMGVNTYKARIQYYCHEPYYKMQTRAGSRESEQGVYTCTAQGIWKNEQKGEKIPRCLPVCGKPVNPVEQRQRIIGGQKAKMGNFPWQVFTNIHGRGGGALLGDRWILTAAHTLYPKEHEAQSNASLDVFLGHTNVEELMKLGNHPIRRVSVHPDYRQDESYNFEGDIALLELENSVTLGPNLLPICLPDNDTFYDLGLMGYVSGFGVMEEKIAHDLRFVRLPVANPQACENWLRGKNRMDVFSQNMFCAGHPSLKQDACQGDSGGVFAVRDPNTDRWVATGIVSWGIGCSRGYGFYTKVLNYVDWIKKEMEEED


Legend:
Details in all cases: both partners purified
[1] = molecular target: T1, full-length activated human C1s; assay: SPR; steady-state fit (K_(D, ss)), 1:1 model, of the same injection series as a2; ElpQ proteins amine-coupled to a CMD200 chip; activated C1s or C1r 0-200 nM; HBS-T Ca2+ (10 mM Hepes pH 7.3, 140 mM NaCl, 0.005% Tween-20, 5 mM CaCl2)
[2] = molecular target: T2, activated full-length human C1r; assay: as above
[3] = molecular target: T1, full-length activated human C1s; assay: SPR; kinetic fit (K_(D, kin)), 1:1 Langmuir; ElpQ/ElpB proteins amine-coupled to a CMD200 chip; activated C1s or C1r injected 0-200 nM, multicycle; HBS-T Ca2+ (10 mM Hepes pH 7.3, 140 mM NaCl, 0.005% Tween-20, 5 mM CaCl2); 30 μl/min; association 120 s (C1r 480 s), dissociation 180 s
[4] = molecular target: T2, activated full-length human C1r; assay: as above
[5] = molecular target: T1, full-length activated human C1s; assay: HDX-MS; ElpQ_(19-343) alone or with a 3-fold molar excess of full-length activated C1s, on ice ~20 min before analysis; exchange 0 s to 2 h at 20 °C in D2O buffer (25 mM phosphate pD 7.5, 0.1 M NaCl); triplicate

Binder	Kd [1] [nM]	Kd [2] [nM]	Kd [3] [nM]	koff [3] [s⁻¹]	kon [3] [M⁻¹ s⁻¹]	Kd [4] [nM]	koff [4] [s⁻¹]	kon [4] [M⁻¹ s⁻¹]	binding result [5]
ElpQ_(181-340) (domain or fragment, also called ElpQ truncation lacking residues 341 to 343) REEAEQQKRQQEEEEKRQVDNQIKTLIAKIDEINENIDVIKWQTTVGPQGVIDRITGPVYDDFTNGNNSIRETWEGLEEESEDEGLGKLLKELSDARDALRTKLNEGNKPYTGYEEPKLKESVNVSEIKEDLEKLKSKLEEVKKYLKDSSKFEEIKGYIS	55.6	181	20.8	0.00794	425000	113	0.00277	26400	
full-length ElpQ (ElpQ_(19-343)) (natural protein, ElpQ, outer surface lipoprotein of the OspEF-related protein family, Borrelia burgdorferi strain B31, UniProt Q9S035, residues 19-343 (325 residues); also called Apo-ElpQ_(19-343)) KNFATGKDIKQNSEGKIKGFVNKILDPVKDKIASSGTKVDEVAKKLQEEEKEELMQGDDPNGSGINPPPVLPENIHNNALVLKAIEQSDGQQEKKVEEAEAKVEENKEKQENTEENIKEKEIIDEQNKQELAKAKEEEQQKEQKRHQEEQQRKAKAEKEKREREEAEQQKRQQEEEEKRQVDNQIKTLIAKIDEINENIDVIKWQTTVGPQGVIDRITGPVYDDFTNGNNSIRETWEGLEEESEDEGLGKLLKELSDARDALRTKLNEGNKPYTGYEEPKLKESVNVSEIKEDLEKLKSKLEEVKKYLKDSSKFEEIKGYISDSQ									binds
ElpQ_(Δ290-296) (domain or fragment, Borrelia burgdorferi strain B31, UniProt Q9S035 181-343, looked up, Synthetic E. coli codon-optimised gene fragment cloned BamHI/NotI into pT7HMT; also called Δ290 to 296) REEAEQQKRQQEEEEKRQVDNQIKTLIAKIDEINENIDVIKWQTTVGPQGVIDRITGPVYDDFTNGNNSIRETWEGLEEESEDEGLGKLLKELSDARDALRTKLNEGNKPKLKESVNVSEIKEDLEKLKSKLEEVKKYLKDSSKFEEIKGYISDSQ	~665		~623	0.00746	22500				
ElpQA4 (domain or fragment, Borrelia burgdorferi strain B31, UniProt Q9S035 181-343, looked up, Synthetic E. coli codon-optimised gene fragment cloned BamHI/NotI into pT7HMT) REEAEQQKRQQEEEEKRQVDNQIKTLIAKIDEINENIDVIKWQTTVGPQGVIDRITGPVYDDFTNGNNSIRATWEGLAAESADEGLGKLLKELSDARDALRTKLNEGNKPYTGYEEPKLKESVNVSEIKEDLEKLKSKLEEVKKYLKDSSKFEEIKGYISDSQ	~464		173	0.0103	60100		0.493	2440	
ElpQ_(181-343) (domain or fragment, pT7HMT adds, as far as I recall, an N-terminal His-Myc tag with a TEV site that is usually cleaved; also called C-terminal truncation construct of ElpQ) REEAEQQKRQQEEEEKRQVDNQIKTLIAKIDEINENIDVIKWQTTVGPQGVIDRITGPVYDDFTNGNNSIRETWEGLEEESEDEGLGKLLKELSDARDALRTKLNEGNKPYTGYEEPKLKESVNVSEIKEDLEKLKSKLEEVKKYLKDSSKFEEIKGYISDSQ	39.3	221	14.5	0.00683	477000	151	0.00316	21700	
